Laboratory results from the supplement of paper PMC9170038.

System: MS2 coat protein
Assay: apparent KD of MS2 coat protein; higher = weaker reporter binding
Settings: Eterna round: R107
Procedure, shortened: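 Normalised binding curves from single clusters were fitted, and the median fit for each design is given as apparent KD. The clusters held designed RNA switches transcribed on-chip from Illumina sequencing clusters. These were titrated with SNAP-549-labelled MS2 coat protein (twofold steps from 0.7 or 1.5 nM to 3 µM, 0.8–1.5 h to 10–20 min per step) in 100 mM Tris-HCl pH 7.5, 80 mM KCl, 4 mM MgCl2, without or with constant ligand.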

[1] = input ligand: theophylline 20 uM
[2] = input ligand: tryptophan 2.4 mM
[3] = input ligand: theophylline 2 mM

| Sequence | apparent KD of MS2 coat protein (input ligand: arginine 13.2 mM) | apparent KD of MS2 coat protein [1] | apparent KD of MS2 coat protein [2] | apparent KD of MS2 coat protein (input ligand: none) | apparent KD of MS2 coat protein [3] |
| --- | --- | --- | --- | --- | --- |
| ACCAUGUAAUCAGAUACCAGACAUCUUUUAAAUCAUAUUACAUGAGGAUCACCCAUGUUGGUCCCUUGGCAGCUGAAAUAUUUUU [JR_Nu_SSTheophyB_Sub026] | 110 nM | 212 nM | 303 nM | – | – |
| AGAGUUAGACAAAAGUCUAGCUCACCAGAAGGAGCGUCCGAAAGGACAGGUAGGUCGCUGGUACCUGAGGAUCACCCGGGUUCCU [ArgAS 17 #OpenEnded #AlternativeMS2] | 134 nM | 172 nM | 80.5 nM | 282 nM | 244 nM |
| CUACAUUUGUAGAAACCGGUCACCGUUACUCGAGGACCGGUACGGCCGCCACUCGUGUCACGUGAUACAUGAGGAUCACCCAUGU [Tryptophan A 11] | 28.9 nM | 45.7 nM | – | – | 54.8 nM |
| GGACUAACCAGAAGGAGCGACACGCAGAAACUGCAAAAUCCUCCACACGAGGAUCACCCGUGUCAGGUAGGUCGCUGGUUAGUCG [ArgXB 16 #Zipper #MS2Left #StaticStem #Blueprint] | 44.6 nM | 83.4 nM | 53.8 nM | 75.3 nM | 86.1 nM |
| GGAUAGGACAGAAGGAGCGACAUGAGGAUCACCCAUGUGGAUCAACGACGAAAGUCGCCAUGUCAGGUAGGUCGCUGUCCUAUCG [ArgXB 8 #MS2Gate #StaticStem #MS2LeftOffAptamer] | 139 nM | 549 nM | 918 nM | 511 nM | 969 nM |
| UGUCAGCGAAAGUUGACAUGUCUUACCGGUCGAGGACCGGUACGGCCGCCACUCGAUCUCUCGCACAUGAGGAUCACCCAUGUUG [SS Tryp A #22] | 19.3 nM | 29 nM | – | – | 26.5 nM |
| GUUGGUUUGCGAAGGAGCGGGUAUGUUGUCUACUGGAUCCUAACAUGAGGAUCACCCAUGUCCCAGGUAGGUCGCGCGGGCUUUG [12.aB] | 34.1 nM | 56.3 nM | 38.2 nM | 28.3 nM | 52.2 nM |
| AGUGUCGGAGCGGCCGCCACUAGCACAUCUGGUCGCCAUGGCAACAUGAGGAUCACCCAUGUUGCUAGGACCGGGCUCAAUAUUU [Maengele] | 8.37 nM | 10.9 nM | – | – | 8.8 nM |
| CACGAUUUGUCGGCCGCCACUAAGGUAACUCUUCUCACAUGAGGAUCACCCAUGUGCCCGAAGCUUAGGACCGGGAUAAUGGGUG [Dieson] | 32.3 nM | 150 nM | – | – | 288 nM |
| AAGGGACAUGAGGAUCACCCAUGUACCGAAGGAGCGGCAGAGAUGCCAGGUAGGUCGCGGUACUUGCCGGGUCAUUCAUGCUAAA [Isxeon] | 9.48 nM | 14.3 nM | 13.5 nM | 12 nM | 11.6 nM |
| GGGAAUGAACGUGAUACCAGAGAUCCGGUCUCCGUCACUCUACAUGAGGAUCACCCAUGUCUCCCUUGGCAGCACCGUCAUCGGG [Exclusion Theophylline B GF 29] | 32.4 nM | 43.3 nM | 29 nM | – | – |
| AGGACUUGCGUUCAAAAUCCCAUGUUGGAAGGAGCGCAUAUAGUUGCAGGUAGGUCGCCGACAUGAGGAUCACCCAUGUCUUUUC [Zasorequer] | 36 nM | 43.8 nM | 35.2 nM | 40.3 nM | 40.5 nM |
| UGGUACAUGAGGAUCACCCAUGUGCCGGAUACCAGAGAGCCGGCUCUCCCUUGGCAGCUGGCGCGACAUGAGGAUCACCCAUGUG [Exclusion Theophylline A GF18] | 18.1 nM | 32.2 nM | 24.6 nM | – | – |
| CUUGAGACAUGAGGAUCACCCAUGUCCGAAGGAGCGUGCGAAAGCACAGGUAGGUCGCGGACAUGAGGAUCACCCAUGUGAGCGA [EAA NP+V+V2 #7 DOUBLE] | 13.8 nM | 25.9 nM | 22 nM | 21.8 nM | 40.2 nM |
| UUUACAUGAGGAUCACCCAUGUGCCAUGAUACCAGACAUGAAAAUGUCCCUUGGCAGCAUGAAGGUACCUCAUCGGGAAACCGAA [Malomerice] | 28.5 nM | 95.7 nM | 53 nM | – | – |
| CCACUUUCUUUUAUCUUUCUUUCUUUGUUACGAGGACCGGUACGGCCGCCACUCGUGGUGUGUGGUACAUGAGGAUCACCCAUGU | 23.1 nM | 34.9 nM | – | – | 32.9 nM |
| AAAACAUGAGGAUCACCCAUGUACAUGGGUCGAGGACCGGUACGGCCGCCACUCGCCGCCCGCCCGCCCGCCACCUCUCCCGCCC | 34.7 nM | 173 nM | – | – | 160 nM |
| GCACAAGAUGGAAGGAGCGCUGGUAACGGUCACAUGAGGAUCACCCAUGUGCUCCUUGCCGAGCAGGUAGGUCGCCAUCUUGUGC [SSAB NP+V+V2 #6 +-Same Structure] | 34.1 nM | 46.1 nM | 35.3 nM | 44.4 nM | 45.3 nM |
| GGACUAACCAGAAGGAGCGGCACAGCAGAAACUGCAAAUCCUCCGCACGAGGAUCACCCGUGUCAGGUAGGUCGCUGGUUAGUCG [ArgBX 28] | 33.5 nM | 55.4 nM | 38.4 nM | 37.1 nM | 49.4 nM |
| GCUACAUGAGGAUCACCCAUGUAUGCGAGCCGAGGACCGGUACGGCCGCCACUCGCUUAACAUGAGGAUCACCCAUGUUGCUCGG [SSTA DOUBLE!!! :-D #17] | 38.9 nM | 77.8 nM | – | – | 55.1 nM |
| GCCGCGGCCGCGAUACACAUGGGUGUGUAACGAGGACCGGUACGGCCGCCACUCGAGAUGGUGUACAUGAGGAUCACCCAUGUAC [Exclusion Tryp A GF14] | 10.5 nM | 21.5 nM | 13.4 nM | 14.5 nM | 17.4 nM |
| UUAAUCAAAUUAGAAAACUAAUUUGCAGAAGGAGCGUGAUAAAACACAGGUAGGUCGCUGAAGGGAACAUGAGGAUCACCCAUGU [AstrosSSArgA#11] | 26.7 nM | 35.7 nM | 25.7 nM | 26 nM | 29.5 nM |
| CCUAUGCAGUCGGCCGCCACUGAACAUGAGGAUCACCCAUGUAUAUAAAGAUCCUGAUAUAAUAACAGGACCGGGACUGUAUAGG [Ex Tryptophan B 10] | 39.2 nM | 73.4 nM | – | – | 58.1 nM |
| AAAUAUUACGGAAGGAGCGUCUCAUAUAUGAAACAUGAGGAUCACCCAUGUGAUAAUGAACGACAGGUAGGUCGCCGAUAAUUGA [JR_AAArginiB_Sub029] | 16.1 nM | 22.7 nM | 15.1 nM | 16 nM | 16.8 nM |
| UCGCUCUGGGUGAAUCCCGGAGAUGUGGAAGGAGCGGACGAAAGUCCAGGUAGGUCGCCAUCGAACAUGAGGAUCACCCAUGUAC [Same State - Arginine A (Freestyle 25)] | 13.3 nM | 338 nM | 21.8 nM | 88.8 nM | 60.5 nM |
| CUCCCGUGAGCGGCCGCCACUGGAGGCUUUGCGCGACAUGAGGAUCACCCAUGUGUGCCCGGCGUUAGGACCGGGUUCGCGUGAG [#1 Same State - Tryptophan B Attempt #16 (HarryS)] | 8.8 nM | 13.9 nM | 11.2 nM | 12.3 nM | 11.2 nM |
| AGCACUGUGACGGCCGCCACUACAUAAGUUGGGUGGUCAGGUUCAUUACAUGAGGAUCACCCAUGUAGGACCGGGUCUCAGUGCA [Omei Trp Exc B A v9] | 9.36 nM | 15.7 nM | 10.3 nM | 11.2 nM | 12.8 nM |
| UAUGCACAUGAGGAUCACCCAUGUAUGGAAGGAGCGGUGAAUGAACCAGGUAGGUCGCCAUGGUGAGGAUCAUCUAUGUAUUCGU [Exclusion - Arginine A (Freestyle 8)] | 49.1 nM | 101 nM | 71.7 nM | 81 nM | 117 nM |
| AUCGUACCUAAUGAUACCAGCAAGUGAUCAUAACAUGAGGAUCACCCAUGUAAUCAGUGAUGCCCUUGGCAGCAUAAUCGAUACA [Same State - Theophylline B (Freestyle 3)] | 103 nM | 170 nM | 129 nM | – | – |
